From IntAct's records for PubMed 39938803

B1: Retinoblastoma-associated protein (Homo sapiens), P06400 (parent)
chain: MPPKTPRKTAATAAAAAAEPPAPPPPPPPEEDPEQDSGPEDLPLVRLEFEETEEPDFTALCQKLKIPDHVRERAWLTWEKVSSVDGVLGGYIQKKKELWGICIFIAAVDLDEMSFTFTELQKNIEISVHKFFNLLKEIDTSTKVDNAMSRLLKKYDVLFALFSKLERTCELIYLTQPSSSISTEINSALVLKVSWITFLLAKGEVLQMEDDLVISFQLMLCVLDYFIKLSPPMLLKEPYKTAVIPINGSPRTPRRGQNRSARIAKQLENDTRIIEVLCKEHECNIDEVKNVYFKNFIPFMNSLGLVTSNGLPEVENLSKRYEEIYLKNKDLDARLFLDHDKTLQTDSIDSFETQRTPRKSNLDEEVNVIPPHTPVRTVMNTIQQLMMILNSASDQPSENLISYFNNCTVNPKESILKRVKDIGYIFKEKFAKAVGQGCVEIGSQRYKLGVRLYYRVMESMLKSEEERLSIQNFSKLLNDNIFHMSLLACALEVVMATYSRSTSQNLDSGTDLSFPWILNVLNLKAFDFYKVIESFIKAEGNLTREMIKHLERCEHRIMESLAWLSDSPLFDLIKQSKDREGPTDHLESACPLNLPLQNNHTAADMYLSPVRSPKKKGSTTRVNSTANAETQATSAFQTQKPLKSTSLSLFYKKVYRLAYLRLNTLCERLLSEHPELEHIIWTLFQHTLQNEYELMRDRHLDQIMMCSMYGICKVKNIDLKFKIIVTAYKDLPHAVQETFKRVLIKEEEYDSIIVFYNSVFMQRLKTNILQYASTRPPTLSPIPHIPRSPYKFPSSPLRIPGGNIYISPLKSPYKISEGLPTPTKMTPRSRILVSIGESFGTSEKFQKINQMVCNSDRVLKRSAEGSNPPKPLKKLRFDIEGSDEADGSKHLPGESKFQQKLAEMTSTRTRMQKQKMNDSMDTSNKEEK

Tests used:
e2f1_human E2F1, Q01094 [1] = variants of: B1; conditions: with e2f1_human E2F1, Q01094
Chain of e2f1_human E2F1, Q01094 (Q01094 whole entry): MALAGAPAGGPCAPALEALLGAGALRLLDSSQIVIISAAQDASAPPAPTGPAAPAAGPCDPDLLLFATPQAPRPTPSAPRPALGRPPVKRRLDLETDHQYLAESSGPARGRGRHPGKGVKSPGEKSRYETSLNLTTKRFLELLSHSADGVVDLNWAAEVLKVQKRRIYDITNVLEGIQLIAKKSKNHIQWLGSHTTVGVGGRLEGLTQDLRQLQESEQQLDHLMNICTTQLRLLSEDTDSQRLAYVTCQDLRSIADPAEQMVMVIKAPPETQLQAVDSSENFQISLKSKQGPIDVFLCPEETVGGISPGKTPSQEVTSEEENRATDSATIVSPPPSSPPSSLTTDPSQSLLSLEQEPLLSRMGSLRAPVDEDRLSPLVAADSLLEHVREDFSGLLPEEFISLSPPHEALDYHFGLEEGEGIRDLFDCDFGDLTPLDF

ve7_hpv16 E7, P03129 [2] = variants of: B1; conditions: with ve7_hpv16 E7, P03129
Chain of ve7_hpv16 E7, P03129 (P03129 whole entry): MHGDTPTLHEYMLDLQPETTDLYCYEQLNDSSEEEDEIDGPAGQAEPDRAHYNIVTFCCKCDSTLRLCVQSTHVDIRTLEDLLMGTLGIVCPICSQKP

ve7_hpv16 E7, P03129 [3] = variants of: B1; conditions: with ve7_hpv16 E7, P03129; remark: listed apart in the source
e2f1_human E2F1, Q01094 [4] = variants of: B1; conditions: with e2f1_human E2F1, Q01094; remark: listed apart in the source

Variant	effect of a mutation on the interaction (e2f1_human E2F1, Q01094 [1])	effect of a mutation on the interaction (ve7_hpv16 E7, P03129 [2])	effect of a mutation on the interaction (ve7_hpv16 E7, P03129 [3])	effect of a mutation on the interaction (e2f1_human E2F1, Q01094 [4])
M546I	increasing interaction strength	decreasing interaction strength	–	–
T687I	decreasing interaction strength	decreasing interaction strength	–	–
A488V	decreasing interaction strength	decreasing interaction strength	–	–
S612P	decreasing interaction strength	decreasing interaction strength	–	–
K462T	decreasing interaction strength	decreasing interaction strength	–	–
K462E	decreasing interaction strength	decreasing interaction strength	–	–
S588F	decreasing interaction strength	with no effect	decreasing interaction strength	–
A490T	decreasing interaction strength	decreasing interaction strength	–	disrupting interaction strength
A490V	decreasing interaction strength	decreasing interaction strength	–	–
A490S	decreasing interaction strength	decreasing interaction strength	–	–
R451C	decreasing interaction strength	decreasing interaction strength	–	–
R451H	decreasing interaction strength	decreasing interaction strength	–	–
R451S	decreasing interaction strength	decreasing interaction strength	–	–
A525G	decreasing interaction strength	decreasing interaction strength	–	–
E492Q	decreasing interaction strength	decreasing interaction strength	–	–
K548N	disrupting interaction strength	decreasing interaction strength	–	–

Variant	effect of a mutation on the interaction (e2f1_human E2F1, Q01094 [1])	effect of a mutation on the interaction (ve7_hpv16 E7, P03129 [2])	effect of a mutation on the interaction (ve7_hpv16 E7, P03129 [3])	effect of a mutation on the interaction (e2f1_human E2F1, Q01094 [4])
Q504E	decreasing interaction strength	with no effect	decreasing interaction strength	–
S443L	decreasing interaction strength	decreasing interaction strength	–	–
Q444L	with no effect	increasing interaction strength	–	decreasing interaction strength
Q444R	decreasing interaction strength	decreasing interaction strength	–	–
R621S	decreasing interaction strength	decreasing interaction strength	–	–
R621H	decreasing interaction strength	decreasing interaction strength	–	–
R621P	decreasing interaction strength	decreasing interaction strength	–	–
R668C	increasing interaction strength	increasing interaction strength	decreasing interaction strength	decreasing interaction strength
R668H	increasing interaction strength	decreasing interaction strength	–	with no effect
D604G	decreasing interaction strength	decreasing interaction strength	–	–
T620M	decreasing interaction strength	decreasing interaction strength	–	–
H673P	decreasing interaction strength	decreasing interaction strength	–	disrupting interaction strength
H673Y	decreasing interaction strength	decreasing interaction strength	–	–
V654L	decreasing interaction strength	decreasing interaction strength	–	–
Y606C	decreasing interaction strength	decreasing interaction strength	–	–
L550I	decreasing interaction strength	increasing interaction strength	–	–
